This is an account of results in publication PMC6234840 (Nature, 2018).

The experiment deals with GST-eIF3h (human, UniProt O15372 1-352). In words: pull-down.
GST-eIF3h, sequence (O15372 whole entry): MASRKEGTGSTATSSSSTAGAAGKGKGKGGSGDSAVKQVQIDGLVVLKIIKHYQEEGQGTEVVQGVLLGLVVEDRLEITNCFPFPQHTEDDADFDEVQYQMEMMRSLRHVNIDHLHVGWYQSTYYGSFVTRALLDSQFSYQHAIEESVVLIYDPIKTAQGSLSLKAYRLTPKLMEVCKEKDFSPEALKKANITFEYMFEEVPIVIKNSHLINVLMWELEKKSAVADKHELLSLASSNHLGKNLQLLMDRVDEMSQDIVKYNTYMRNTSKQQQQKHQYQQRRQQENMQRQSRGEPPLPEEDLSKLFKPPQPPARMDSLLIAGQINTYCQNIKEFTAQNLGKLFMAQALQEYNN

B1: His-METTL3 1-200 amino acid fragment (domain or fragment)
chain: MSDTWSSIQAHKKQLDSLRERLQRRRKQDSGHLDLRNPEAALSPTFRSDSPVPTAPTSGGPKPSTASAVPELATDPELEKKLLHHLSDLALTLPTDAVSICLAISTPDAPATQDGVESLLQKFAAQELIEVKRGLLQDDAHPTLVTYADHSKLSAMMGAVAEKKGPGEVAGTVTGQKRRAEQDSTTVAAFASSLVSGLNS
On to B1, for which the binding result is recorded as “binds”.
